{"source": "patent US5798442A", "about": "“Peptidyl derivatives as inhibitors of pro-apoptotic cysteine proteinases” (Merck Frosst Canada, Inc., priority 1995, dated 1998)", "proteins": {"B1": {"name": "apopain/CPP32 (Homo sapiens) (protein)", "chain 1": "SGISLDNSYKMDYPEMGLCIIINNKNFHKSTGMTSRSGTDVDAANLRETFRNLKYEVRNKNDLTREEIVELMRDVSKEDHSKRSSFVCVLLSHGEEGIIFGTNGPVDLKKITNFFRGDRCRSLTGKPKLFIIQACRGTELDCGIETD", "chain 2": "SGVDDDMACHKIPVEADFLYAYSTAPGYYSWRNSKDGSWFIQSLCAMLKQYADKLEFMHILTRVNRKVATEFESFSFDATFHAKKQIPCIVSMLTKELYFYH", "notes": "cleavage between Asp^28 -Ser^29 and Asp^175 -Ser^176; cleavage sites which yield the p17 and p12 subunits from the CPP32 proenzyme; endogenous in cells; host or cells: THP-1 cells (ATCC TIB 202)"}}, "substrate": "CC(=O)N[C@@H](CC(=O)O)C(=O)N[C@@H](CCC(=O)O)C(=O)N[C@H](C(=O)N[C@@H](CC(=O)O)C(=O)Nc1ccc2c(C)cc(=O)oc2c1)C(C)C", "assay": "continuous fluorometric assay with Ac-DEVD-AMC and purified apopain", "type": "biochemical, human", "details": "other: purified apopain, 25° C., pH 7.5"}
{"protein": "B1", "values": [{"measurement": "Km", "result": "9.7 ± 1.0", "unit": "µM"}]}
